From article PMC5334656, “McMYB12 Transcription Factors Co-regulate Proanthocyanidin and Anthocyanin Biosynthesis in Malus Crabapple”

What was measured:
McMYB12b = biological target: T1, McMYB12b (Malus crabapple, UniProt X2EZI4 1-374); assay: EMSA; LightShift Chemiluminescent EMSA Kit per manufacturer; 10 ug protein, 25 pmol biotin probe, 10- to 1000-fold competitor; buffer, salt, pH and temperature not stated; details: protein: recombinant; label: biotin; blunt
T1 sequence: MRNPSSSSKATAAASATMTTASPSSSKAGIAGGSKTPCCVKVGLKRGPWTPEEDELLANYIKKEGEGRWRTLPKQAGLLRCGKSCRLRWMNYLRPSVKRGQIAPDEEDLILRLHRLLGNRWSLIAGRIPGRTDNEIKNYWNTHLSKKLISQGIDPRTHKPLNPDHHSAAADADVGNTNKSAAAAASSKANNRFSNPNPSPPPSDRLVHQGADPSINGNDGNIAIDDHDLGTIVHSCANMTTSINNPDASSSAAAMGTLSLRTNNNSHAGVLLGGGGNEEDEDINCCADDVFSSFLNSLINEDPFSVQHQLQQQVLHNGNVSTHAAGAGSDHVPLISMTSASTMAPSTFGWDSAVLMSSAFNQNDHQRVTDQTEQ

McMYB12a = biological target: T2, McMYB12a (Malus crabapple, UniProt X2EXK4 1-364); assay: as above; details: protein: recombinant; label: biotin; blunt
T2 sequence: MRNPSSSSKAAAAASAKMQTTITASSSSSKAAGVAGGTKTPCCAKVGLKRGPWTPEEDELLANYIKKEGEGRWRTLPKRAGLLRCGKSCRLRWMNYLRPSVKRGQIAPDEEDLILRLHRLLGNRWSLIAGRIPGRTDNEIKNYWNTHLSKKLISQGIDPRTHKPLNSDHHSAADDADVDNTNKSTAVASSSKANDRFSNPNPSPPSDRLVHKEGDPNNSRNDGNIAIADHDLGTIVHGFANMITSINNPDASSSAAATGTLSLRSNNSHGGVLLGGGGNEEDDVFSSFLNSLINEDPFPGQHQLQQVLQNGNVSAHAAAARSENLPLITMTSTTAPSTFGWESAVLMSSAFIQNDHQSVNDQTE

B1: proMcLAR2 probe (dsDNA)
DNA 1: AAGTATGGTATAAACACAGACTAAGCCTCATTATCATATCCATATCAT
DNA 2: ATGATATGGATATGATAATGAGGCTTAGTCTGTGTTTATACCATACTT
Does B1 bind (McMYB12b)?
Result: binds

Does B1 bind (McMYB12a)?
Result: binds

B2: proMcANR1 probe (dsDNA)
DNA 1: ATTCTGAGTACTGTAACCTAAGTTGAAGTTGAATAATTGACGTCGTC
DNA 2: GACGACGTCAATTATTCAACTTCAACTTAGGTTACAGTACTCAGAAT
Does B2 bind (McMYB12b)?
Result: binds

Does B2 bind (McMYB12a)?
Result: binds

B3: proMcLAR1 probe (dsDNA)
DNA 1: GGACAGAAATTATCCATACACCCTTTTCGTTAATGTTGCAAACTGAGT
DNA 2: ACTCAGTTTGCAACATTAACGAAAAGGGTGTATGGATAATTTCTGTCC
Does B3 bind (McMYB12b)?
Result: binds

Does B3 bind (McMYB12a)?
Result: no binding

B4: proMcANR2 probe (dsDNA)
DNA 1: ATTGGGAGATATGTGCTCGTTTTAGAGTGCTTTTAAAATAACTGAAAAC
DNA 2: GTTTTCAGTTATTTTAAAAGCACTCTAAAACGAGCACATATCTCCCAAT
What does the source list for B4?
binding result (McMYB12b): binds; binding result (McMYB12a): binds

B5: proMcANS probe (dsDNA)
DNA 1: AGATCATTGCTCCAACTGGCTAAAATTAAGTGACCATTACTATAAT
DNA 2: ATTATAGTAATGGTCACTTAATTTTAGCCAGTTGGAGCAATGATCT
Does B5 bind (McMYB12b)?
Result: binds

Does B5 bind (McMYB12a)?
Result: binds

B6: proMcCHS probe (dsDNA)
DNA 1: GCAACTCCTCCCAACTGTGTGGATCAAGCCACATACCCCGACTATTACT
DNA 2: AGTAATAGTCGGGGTATGTGGCTTGATCCACACAGTTGGGAGGAGTTGC
Does B6 bind (McMYB12a)?
Result: binds
